Reference: patent publication US10982244B2, “Modified homoserine dehydrogenase and method for producing homoserine or L-amino acid derived from homoserine using the same” (CJ CHEILJEDANG CORPORATION, priority 2018, dated 2021)

Molecular target: T1, homoserine dehydrogenase (Hom) (Corynebacterium glutamicum, UniProt P08499, R407H)
T1 construct: each supernatant was recovered through two centrifugations (13,000 rpm, 4° C., 30 minutes) and used as a crude extract for measuring the activity of Hom; endogenous in cells; host or cells: Crude cell extracts of Corynebacterium glutamicum ATCC13032 (wild type) and of CA09-0900 (ATCC13032 with chromosomal hom R407H)
Experiment: Measurement of Hom activity (U) and desensitization by L-threonine in crude extracts
Assay type: biochemical
Settings: 10 mM L-threonine, compared with wild-type Hom
Method: The activity of the enzyme Hom was measured in the prepared strain. The wild-type strain ATCC13032 (the control group) and the CA09-0900 strain prepared in Example 4 were each inoculated into 25 mL of the seed medium and cultured until the strains reached the late log phase. The cells of each strain were recovered by centrifugation, washed twice with a 0.1 M potassium phosphate buffer (pH 7.6), and finally suspended in 2 mL of the same buffer containing glycerol at a concentration of 30%. Each cell suspension was physically disrupted by a conventional glass bead vortexing method for 10 minutes, and each supernatant was recovered through two centrifugations (13,000 rpm, 4° C., 30 minutes) and used as a crude extract for measuring the activity of Hom. For the measurement of the activity of Hom, a […] (0.1 mL) was added to a reaction solution for measuring the enzyme activity (a potassium phosphate (pH 7.0) buffer, 25 mM NADPH, 5 mM aspartate semi-aldehyde) and reacted at 30° C. The Hom enzyme activity U was defined as the number of NADPH consumed per minute according to the presence of L-threonine (0 mM, 10 mM), and the measurement results of the enzyme activity are shown in Table 2 below.

B1: Hom including the R407H modification: modified homoserine dehydrogenase, arginine at position 407 substituted with histidine (protein)
chain: MTSASAPSFNPGKGPGSAVGIALLGFGTVGTEVMRLMTEYGDELAHRIGGPLEVRGIAVSDISKPREGVAPELLTEDAFALIEREDVDIVVEVIGGIEYPREVVLAALKAGKSVVTANKALVAAHSAELADAAEAANVDLYFEAAVAGAIPVVGPLRRSLAGDQIQSVMGIVNGTTNFILDAMDSTGADYADSLAEATRLGYAEADPTADVEGHDAASKAAILASIAFHTRVTADDVYCEGISNISAADIEAAQQAGHTIKLLAICEKFTNKEGKSAISARVHPTLLPVSHPLASVNKSFNAIFVEAEAAGRLMFYGNGAGGAPTASAVLGDVVGAARNKVHGGRAPGESTYANLPIADFGETTTRYHLDMDVEDRVGVLAELASLFSEQGISLRTIRQEERDDDAHLIVVTHSALESDLSRTVELLKAKPVVKAINSVIRLERD
modifications: homoserine dehydrogenase R407H
notes: modified homoserine dehydrogenase, arginine at position 407 substituted with histidine
desensitization to L-threonine: the inhibition of the activity was reduced
